Test results taken from publication PMC6495647, “Purification and interactions of the MucA’ and MucB proteins constituting the DNA polymerase RI”.

What was measured:
MucA' = target: T1, MucA' (plasmid pKM101 (expressed in E. coli …, UniProt Q79BK8 26-146)); test: SPR; MucA' alone; SPR (BIAcore 2000, SA chip): 20 mM HEPES pH 8.0, 50 mM K-glutamate, 10 mM Mg acetate, 5% glycerol, 0.1 mM EDTA, 2 mM DTT, 0.05% Surfactant P20 (1% P20 in MucB sample); temperature not stated; settings: protein: recombinant; tags: none stated (pYG8506, pET-16b based); chain copies: 2; label: 5'-biotin; single strand
T1 sequence: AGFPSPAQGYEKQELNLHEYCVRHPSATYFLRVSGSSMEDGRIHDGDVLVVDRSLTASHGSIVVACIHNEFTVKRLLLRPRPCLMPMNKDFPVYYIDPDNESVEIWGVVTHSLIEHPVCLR

MucB = target: T2, MucB (plasmid pKM101 (expressed in E. coli …, UniProt Q79BK7 1-421)); test: SPR; MucB 0.26 uM alone; 10 mM Mg acetate; SPR (BIAcore 2000, SA chip): 20 mM HEPES pH 8.0, 50 mM K-glutamate, 10 mM Mg acetate, 5% glycerol, 0.1 mM EDTA, 2 mM DTT, 0.05% Surfactant P20 (1% P20 in MucB sample); temperature not stated; settings: protein: recombinant; tags: none stated (untagged construct pYG8512); label: 5'-biotin; single strand
T2 sequence: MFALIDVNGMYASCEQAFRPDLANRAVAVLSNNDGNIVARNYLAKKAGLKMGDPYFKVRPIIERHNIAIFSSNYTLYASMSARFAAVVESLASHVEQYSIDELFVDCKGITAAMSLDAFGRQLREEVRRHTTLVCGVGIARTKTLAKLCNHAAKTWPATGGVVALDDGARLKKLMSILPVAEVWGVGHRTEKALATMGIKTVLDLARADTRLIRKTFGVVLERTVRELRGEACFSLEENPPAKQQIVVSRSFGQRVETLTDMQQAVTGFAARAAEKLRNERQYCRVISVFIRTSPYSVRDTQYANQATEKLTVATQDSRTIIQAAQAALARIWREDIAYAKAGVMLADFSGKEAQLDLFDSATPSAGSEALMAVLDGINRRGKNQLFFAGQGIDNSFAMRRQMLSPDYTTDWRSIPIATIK

B1: 73-mer ssDNA oligonucleotide (ssDNA)
DNA: GCGGCGGTTGAGTAGCTCTTCTTCCAGCACGTTTTCGCCGATAATACCGGGATCGACCACGCCATCCATTACC
binding result (MucA'): no binding | binding result (MucB): binds
